Measured values reported in the supplement of paper PMC9116672.
± gives the standard deviation of the averaged measurements or the uncertainty stated by the source.

What was measured:
[1] = duplex formation free energy ΔG50 (Van't Hoff fit of HRM Tm); higher = less stable duplex; details: temperature for dG: 50 °C, NaCl: 500 mM (unadjusted)
Summary of the method: (§1)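 Duplexes of phosphodiester or phosphorothioate (mixed Rp/Sp) DNA strands, annealed 1:1, were melted in quadruplicate at 1–20 μM in 1× NNE buffer (500 mM NaCl, pH 7.0) with 1× EvaGreen, 37 to 97°C at 0.1°C/s. Enthalpy, entropy and extrapolated free energy come from a linear Van't Hoff fit of 1/Tm (Tm: peak of -dF/dT) against ln(CT/4), without salt adjustment and with fit standard deviations as errors. Free energy refers to 50°C.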

[2] = duplex formation enthalpy ΔH (Van't Hoff fit of HRM Tm); higher = less exothermic duplex formation; details: temperature for dG: 50 °C, NaCl: 500 mM (unadjusted)
Summary of the method: as §1

[3] = duplex melting temperature (HRM, EvaGreen); higher = more stable duplex
Summary of the method: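 Complementary DNA strands (phosphodiester or phosphorothioate, Rp/Sp mixtures) were annealed 1:1 at 25 μM, then diluted to 1–20 μM duplex in NNE buffer (500 mM NaCl, pH 7.0) with 1× EvaGreen. A LightCycler96 read fluorescence (470/514 nm) while heating from 37°C to 97°C at 0.1°C/s. Melting temperature was the peak of the negative dF/dT curve from the instrument software. Four replicates were prepared; those lacking a clear peak were excluded and the rest averaged.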

[4] = duplex formation entropy ΔS (Van't Hoff fit of HRM Tm); higher = smaller entropy loss on duplex formation; details: temperature for dG: 50 °C, NaCl: 500 mM (unadjusted)
Summary of the method: as §1

[5] = backbone: PO-PO (both strands phosphodiester DNA)
[6] = backbone: PS-PO (listed strand fully phosphorothioate, complement phosphodiester)
[7] = backbone: PS-PS (both strands fully phosphorothioate)
[8] = duplex concentration 1 µM, backbone: PO-PO (both strands phosphodiester DNA)
[9] = duplex concentration 1 µM, backbone: PS-PS (both strands fully phosphorothioate)
[10] = duplex concentration 2.5 µM, backbone: PO-PO (both strands phosphodiester DNA)
[11] = duplex concentration 2.5 µM, backbone: PS-PO (listed strand fully phosphorothioate, complement phosphodiester)
[12] = duplex concentration 2.5 µM, backbone: PS-PS (both strands fully phosphorothioate)
[13] = duplex concentration 5 µM, backbone: PO-PO (both strands phosphodiester DNA)
[14] = duplex concentration 5 µM, backbone: PS-PO (listed strand fully phosphorothioate, complement phosphodiester)
[15] = duplex concentration 5 µM, backbone: PS-PS (both strands fully phosphorothioate)
[16] = duplex concentration 7.5 µM, backbone: PO-PO (both strands phosphodiester DNA)
[17] = duplex concentration 7.5 µM, backbone: PS-PO (listed strand fully phosphorothioate, complement phosphodiester)
[18] = duplex concentration 7.5 µM, backbone: PS-PS (both strands fully phosphorothioate)
[19] = duplex concentration 10 µM, backbone: PO-PO (both strands phosphodiester DNA)
[20] = duplex concentration 10 µM, backbone: PS-PO (listed strand fully phosphorothioate, complement phosphodiester)
[21] = duplex concentration 10 µM, backbone: PS-PS (both strands fully phosphorothioate)
[22] = duplex concentration 15 µM, backbone: PO-PO (both strands phosphodiester DNA)
[23] = duplex concentration 15 µM, backbone: PS-PO (listed strand fully phosphorothioate, complement phosphodiester)
[24] = duplex concentration 15 µM, backbone: PS-PS (both strands fully phosphorothioate)
[25] = duplex concentration 20 µM, backbone: PO-PO (both strands phosphodiester DNA)
[26] = duplex concentration 20 µM, backbone: PS-PO (listed strand fully phosphorothioate, complement phosphodiester)
[27] = duplex concentration 20 µM, backbone: PS-PS (both strands fully phosphorothioate)

| Sequence | duplex formation free energy ΔG50 [1, 5] | duplex formation free energy ΔG50 [1, 6] | duplex formation free energy ΔG50 [1, 7] | duplex formation enthalpy ΔH [2, 5] | duplex formation enthalpy ΔH [2, 6] | duplex formation enthalpy ΔH [2, 7] | duplex melting temperature [3, 8] | duplex melting temperature [3, 9] | duplex melting temperature [3, 10] | duplex melting temperature [3, 11] | duplex melting temperature [3, 12] | duplex melting temperature [3, 13] | duplex melting temperature [3, 14] | duplex melting temperature [3, 15] | duplex melting temperature [3, 16] | duplex melting temperature [3, 17] | duplex melting temperature [3, 18] | duplex melting temperature [3, 19] | duplex melting temperature [3, 20] | duplex melting temperature [3, 21] | duplex melting temperature [3, 22] | duplex melting temperature [3, 23] | duplex melting temperature [3, 24] | duplex melting temperature [3, 25] | duplex melting temperature [3, 26] | duplex melting temperature [3, 27] | duplex formation entropy ΔS [4, 5] | duplex formation entropy ΔS [4, 6] | duplex formation entropy ΔS [4, 7] |
| --- | --- | --- | --- | --- | --- | --- | --- | --- | --- | --- | --- | --- | --- | --- | --- | --- | --- | --- | --- | --- | --- | --- | --- | --- | --- | --- | --- | --- | --- |
| TGCCATGTTGAAAACC | -12.4 ± 0.13 kcal/mol | -10.63 ± 0.058 kcal/mol | -8.447 ± 0.02 kcal/mol | -79.2 ± 2.6 kcal/mol | -76.1 ± 1.9 kcal/mol | -74 ± 2.4 kcal/mol | 61.32 ± 0.21 °C | 44.3 ± 0.54 °C | 63.56 ± 0.48 °C | 56.23 ± 0.2 °C | 46.98 ± 0.17 °C | 65.51 ± 0.22 °C | 58.37 ± 0.066 °C | 48.71 ± 0.25 °C | 66.6 ± 0.21 °C | 59.53 ± 0.1 °C | 49.82 ± 0.18 °C | 67.59 ± 0.15 °C | 60.34 ± 0.13 °C | 50.73 ± 0.22 °C | 68.82 ± 0.18 °C | 61.44 ± 0.11 °C | 51.73 ± 0.34 °C | 69.71 ± 0.33 °C | 62.27 ± 0.073 °C | 52.86 ± 0.13 °C | -207 ± 7.6 cal/mol/K | -203 ± 5.8 cal/mol/K | -203 ± 7.4 cal/mol/K |
| TGTAAGACTTCTGCCAGAAA | -16.7 ± 0.45 kcal/mol | -12.4 ± 0.17 kcal/mol | -10.11 ± 0.025 kcal/mol | -126 ± 6.9 kcal/mol | -87.2 ± 3.7 kcal/mol | -73.5 ± 1.4 kcal/mol | 69.04 ± 0.47 °C | 51.3 ± 0.66 °C | 70.48 ± 0.32 °C | 62.5 ± 0.74 °C | 54 ± 0.63 °C | 71.8 ± 0.086 °C | 64.36 ± 0.58 °C | 56.14 ± 0.29 °C | 72.66 ± 0.2 °C | 65.49 ± 0.58 °C | 57.54 ± 0.21 °C | 73.31 ± 0.13 °C | 66.18 ± 0.34 °C | 58.2 °C | 73.99 ± 0.12 °C | 67.16 ± 0.27 °C |  |  | 67.83 ± 0.18 °C |  | -339 ± 20 cal/mol/K | -231 ± 11 cal/mol/K | -196 ± 4.2 cal/mol/K |
| TGTCGCACCCTACTA | -12.1 ± 0.25 kcal/mol | -10.95 ± 0.05 kcal/mol | -9.838 ± 0.072 kcal/mol | -63.3 ± 4.2 kcal/mol | -64.2 ± 1.2 kcal/mol | -60.7 ± 3.1 kcal/mol | 62.8 ± 2.6 °C | 49.8 ± 0.68 °C | 66.1 °C | 59.14 ± 0.13 °C | 53.99 ± 0.17 °C | 68.24 ± 0.43 °C | 61.72 ± 0.17 °C | 56.51 ± 0.21 °C | 69.66 ± 0.3 °C | 62.92 ± 0.17 °C | 57.65 ± 0.22 °C | 71.02 ± 0.2 °C | 64.01 ± 0.12 °C | 58.5 ± 0.23 °C | 72.66 ± 0.19 °C | 65.449 ± 0.05 °C | 59.67 ± 0.14 °C | 73.62 ± 0.15 °C | 66.44 ± 0.098 °C | 60.75 ± 0.17 °C | -158 ± 12 cal/mol/K | -165 ± 3.6 cal/mol/K | -157 ± 9.5 cal/mol/K |
